Assay results taken from the RNAGym collection of RNA variant scans (doi:10.1073/pnas.2313332121).

B1: TPR t1 (parent)
chain: GACCAAUCUGCCCUCAGAGCUCGAGAACAUCUUCGGAUGCAGAGGAGGCAGGCUUCGGUGGCGCGAUAGCGCCAACGUCCUCAACCUCCAAUGCAUCCCACCACAUGAUGAUGCCUGAAGAGCCUUGGUUUUUUG

Variants of: B1
Experiment: polymerase ribozyme fitness, log enrichment relative to wild type (log ratio); higher = more active; in vitro selection for triplet polymerase activity
Outline: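 Both subunits of a heterodimeric triplet polymerase ribozyme were given their own mutant library, built by PCR and transcribed. Each library was annealed with a biotinylated primer, the partner subunit and triplets, incubated frozen at −7 °C, and its extended constructs gel-excised, captured on streptavidin beads and amplified by RT-PCR, all in one round done in triplicate. Fitness is the logarithm of genotype enrichment relative to wild-type enrichment, with replicates averaged by inverse-variance weighting. That logarithm is base 2, and Illumina-sequenced genotypes needed ≥10 input reads and ≥1 read per output.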

Variant	polymerase ribozyme fitness (log ratio)
GACCAAUCUGCCCUCAGAGCUGGAGAACAUCUUCGGAUGCCGACGAGGCAGGCUUCGGUGGCGCGAUAGCGCCAACGUGCUCAACCUCCCAUGCAUCCCACCACAUGAUGAUGCCUGAAGAGCCUUGGUUUUUUG [C22G A41C G44C C79G A90C]	-6.07
GACCAAUCUGCCCUCAGAGCUGGAGAACAUCUUCGGAUGCAGAGGAGGCAGGCUUCGGUGCCGCGAUCGCGCCAACGUCCUCAACCUCCAAUGCAUCCCACCACAUGAUGAUGCCUGAAGAGUCUUGGUUUUUUG [C22G G61C A68C C123U]	-6.92
GACCAAUCUGCCCUCAGAGCUGGAGAACAUCUUCGGAUGCAGAGGAGGCAGGCUUCUGUGGCGCGAUAGCGCCAACGUCCUCAACCUCCAACGCAUCCCUCCAAAUGAUGAUACCUGAAGAGCCUUGGUUUUUUG [C22G G57U U92C A100U C104A G113A]	-7.69
GACCAAUCUGCCCUCAGAGCUGGAGAACAUCUUCGGAUGCAGAGGAGGCGGGCUUCGGUGGCGCGAUAGCGCGAACGUCCUCAACCUCCAAUGAAUCCCACCACAUGAUGAUGCCUGAACAGCCUUGGUUUUUUG [C22G A50G C73G C94A G120C]	-4.89
GACCAAUCUGCCCUCAGAGCUGGAGAACAUCUUCGGAUGCAGAGAAGGCAGGCUUCGGUGGCGCGAUAGCGCCAACGUCCUCAACCUGCAAUGCAUCCCACCACAUGAUGAUGCCUGAAGAGCCUUGGUUUUUUG [C22G G45A C88G]	-4.78
GACCAAUCUGCCCUCAGAGCUGGAGAACAUCUUCGGAUGCAGAGGUGGCAGGCUUCGGUGGCGCGAUAGCGCCAAUGUCCUCAACCUCCAAUGCAUCUCACCACAUGAUGAUGCCUGAAGAGCCUUGGUUUUUUG [C22G A46U C76U C98U]	-5.32
GACCAAUCUGCCCUCAGAGCUGGAGAACAUCUUCGGAUGCAGAGGAGGCAGGCUUCGGUGGCGCGAUAGCGCCAAUCUCCUCAACCUCCAAUGCAUCCCACCACAUGAUGAUGCCUGAAGAGCUUUGGUUGUUUG [C22G C76U G77C C124U U131G]	-3.47
GACCAAUCUGCCCUCAGAGCUGGAGAACAUCUUCGGAUGCAGAGGAGGCAGGCUUCGGUGGCGCGAUAACGCCAACGUCCUCAACCUCCUAUGCAUCCCACCACAAGAUGUUGCCUGAAGAGCCUUGGUUUUUUG [C22G G69A A90U U106A A111U]	-4.92
GACCAAUCUGCCCUCAGAGCUGGAGAACAUCUUCGGAUGCAGAGGAGGCAGGCUUCGGUGUCGCGAUAGCGCCAACGUCCUCAACCUCCAAUGCAUCCCACCACAUGAUGAUGCCUGAAGAGCAUUGGUUUUUUG [C22G G61U C124A]	-1.97
GACCAAUCUGCCCUCAGAGCUGGAGAACAUCUUCGGAUGGAGAGAACGCAGGCUUCGGUGGCGCGAUAGCGGCAACGUCCUCAACCUCCAAUGCAUCCCACCACAUGAUGAGGCCUGAAGAGCCUUGGUUUAUUG [C22G C40G G45A G47C C72G U112G U132A]	-4.49
GACCAAUCUGCCCUCAGAGCUGGAGAACAUCUUCGGAUGCAGAGGAGGCAGGGUUCGGUGGCCCGAUAGCGCCAACGUCCUCAACCUCCAAUGCAUCCCACCACAUGAUGAUUCCUGAAGAGCCUUGGUUUUUUG [C22G C53G G63C G113U]	-5.64
GACCAAUCUGCCCUCAGAGCUGGAGAACAUCUUCGGAUGCAGAGGAGGAAGGCUUCGGUGGCGCGAUAGCGCCAACGUCCUCAACCUCCAAUGCAUCCCACCACAUGAUGAUGCCUUAAGAGCCUUGGUUUUUUG [C22G C49A G117U]	-3.11
GACCAAUCUGCCCUCAGAGCUGGAGAACAUCUUCGGAUGCAGAGGAGGCAAGCUUCGGUGGCGCGAUAGCGCCAACGUCCACAACCUCCAAUGCAUCCCACCACAUGAUGAUGCUUGAAGAGCCUUGGUAUUUUG [C22G G51A U81A C115U U130A]	-5.32
GACCAAUCUGCCCUCAGAGCUGGAGAACAUCUUCGGAUGCAGAGGAGACAGGCUUCGGUGGCGCGAUACCGCCAACGACCUCAACCCCCAAUGCAUCCCACCACAUGAUGAUGCCUGAAGAGCCUUGGUUUUUUG [C22G G48A G69C U78A U87C]	-5.69
GACCAAUCUGCCCUCAGAGCUGGAGAACAUCUUCGGAUGCAGAGGAGGCAAGCUUCGGUGGCGCGAUAGCGGCAACGUCCUCAACCUCCAAUGCAUCCCACCACAUGAUGAUGCCUGAAGAGCCUUGGUUUUUUG [C22G G51A C72G]	-4.82
GACCAAUCUGCCCUCAGAGCUGGAGAACAUCUUCGGAUGCAGAGGAGGCAGGCUUCGGUGGCGCGAUAGCGCCAACGUCCUCAACCUCCAAUGCAUCCCACCACAUGAUGCUGCCUGAAGAGCCUUGGUUUUUUG [C22G A111C]	-3.66
GACCAAUCUGCCCUCAGAGCUGGAGAACAUCUUCGGAUGCAGAGGAGGCAGGCUUCGGUGGCGCGAUAGCGGCAACGUCCUCAACCUCCAAUGCAUCCCACCACAUGAUGAUGCCUGAAGAGCCUUGGUUUUUUG [C22G C72G]	-2.12
GACCAAUCUGCCCUCAGAGCUGGAGAACAUCUUCGGUUGCAGAGGAGGCAGGCUUCGGUGGCGCGAUAUCGCCAACGUCCUCAACCGCCAAUGCAUCCCACCACAUGAUGAUGCCUGAAGAGCCUUGGUUUUUUG [C22G A37U G69U U87G]	-2.42
GACCAAUCUGCCCUCAGAGCUGGAGAACAUCUUCGGAUGCAGAGGAGGCAGGCUUCGGUGGCGCGAUAGCGCCAACGUCCUCAACCUCCAAUGCAUCCCACCACAUGAUCAUGCCUGAAGAGGCUUGGUUUUUUG [C22G G110C C123G]	-5.98
GACCAAUCUGCCCUCAGAGCUGGAGAACAUCUUCGGAUGCAGAGGAGGCCGGCUUCGGUGGCGCGAUAGCGCCAGCGUCCUCAACCUCCAAUGCAUCCCACCACAUGAUGAUGCCUGAAGAGCCUUGGUUUUUUG [C22G A50C A75G]	-3.94
GACCAAUCUGCCCUCAGAGCUGGAGAACAUCUUCGGAUACAGAGGAGGCAGGCUUUGGUGGCGCGAUAGCGCCAACGUCCUCAACCUCCAAUGCAUCCCACCACAUGAUGAUGCCUGAAGAGCCUUGGUUUUUUG [C22G G39A C56U]	-3.12
